The term Kd denotes the equilibrium constant for the complex coming apart. Low readings indicate a tighter complex, high ones a looser complex.

Among the data in PMC3749136 (2013) are Kd values, retold here.

Assay [1] concerns the target JAK3 JH1 domain (UniProt P52333 822-1111). As to the kind of experiment: SPR. (In SPR one partner is held on a chip, and binding of the other changes the refractive index at the surface.)
In assay [2] the target is T1, TYK2 JH1 domain (UniProt P29597 897-1176).
T1 chain: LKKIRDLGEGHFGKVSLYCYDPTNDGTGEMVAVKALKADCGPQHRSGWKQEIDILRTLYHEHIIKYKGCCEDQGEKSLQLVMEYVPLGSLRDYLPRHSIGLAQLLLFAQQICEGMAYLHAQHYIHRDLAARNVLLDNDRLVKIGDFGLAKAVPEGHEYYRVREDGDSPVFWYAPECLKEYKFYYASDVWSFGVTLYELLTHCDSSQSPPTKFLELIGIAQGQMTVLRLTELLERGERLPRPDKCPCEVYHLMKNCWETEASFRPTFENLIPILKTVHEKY
As to the kind of experiment: SPR.

Chain of JAK3 JH1 domain (P52333 822-1111): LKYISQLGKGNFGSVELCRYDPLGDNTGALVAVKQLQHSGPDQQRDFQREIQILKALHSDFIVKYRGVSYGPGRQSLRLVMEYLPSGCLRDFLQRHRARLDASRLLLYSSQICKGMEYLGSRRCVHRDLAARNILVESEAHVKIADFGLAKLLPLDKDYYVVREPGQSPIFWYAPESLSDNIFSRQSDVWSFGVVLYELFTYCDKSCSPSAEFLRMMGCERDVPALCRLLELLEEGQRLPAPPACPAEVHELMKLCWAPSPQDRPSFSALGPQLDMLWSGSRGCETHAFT

B1: SOCS5 175–244 fragment (domain or fragment)
chain: RSLRQRLQDTVGLCFPMRTYSKQSKPLFSNKRKIHLSELMLEKCPFPAGSDLAQKWHLIKQHTAPVSPHS
For the molecule B1, the Kd was 2100 nM in assay [1] and 1200 nM in assay [2].
